Reference: patent US20180140737A1, “HAEMOSTATIC MATERIAL” (HAEMOSTATIX LIMITED, priority 2015, published 2018)

What was measured:
fibrinogen [1] = target: T1, fibrinogen (Homo sapiens, UniProt P02675+P02679); settings: cited from earlier work
T1 sequence (P02679 27-453): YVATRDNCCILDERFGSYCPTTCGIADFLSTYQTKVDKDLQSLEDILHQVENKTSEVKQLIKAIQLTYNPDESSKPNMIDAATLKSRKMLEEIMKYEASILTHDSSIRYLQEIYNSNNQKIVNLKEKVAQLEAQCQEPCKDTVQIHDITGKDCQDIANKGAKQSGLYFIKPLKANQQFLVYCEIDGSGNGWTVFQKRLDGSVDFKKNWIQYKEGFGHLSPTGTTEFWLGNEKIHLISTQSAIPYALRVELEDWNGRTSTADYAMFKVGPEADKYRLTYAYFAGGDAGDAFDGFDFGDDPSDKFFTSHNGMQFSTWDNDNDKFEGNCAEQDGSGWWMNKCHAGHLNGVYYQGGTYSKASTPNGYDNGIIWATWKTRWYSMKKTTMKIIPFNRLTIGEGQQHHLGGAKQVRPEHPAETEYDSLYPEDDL
T1 sequence (P02675 31-491): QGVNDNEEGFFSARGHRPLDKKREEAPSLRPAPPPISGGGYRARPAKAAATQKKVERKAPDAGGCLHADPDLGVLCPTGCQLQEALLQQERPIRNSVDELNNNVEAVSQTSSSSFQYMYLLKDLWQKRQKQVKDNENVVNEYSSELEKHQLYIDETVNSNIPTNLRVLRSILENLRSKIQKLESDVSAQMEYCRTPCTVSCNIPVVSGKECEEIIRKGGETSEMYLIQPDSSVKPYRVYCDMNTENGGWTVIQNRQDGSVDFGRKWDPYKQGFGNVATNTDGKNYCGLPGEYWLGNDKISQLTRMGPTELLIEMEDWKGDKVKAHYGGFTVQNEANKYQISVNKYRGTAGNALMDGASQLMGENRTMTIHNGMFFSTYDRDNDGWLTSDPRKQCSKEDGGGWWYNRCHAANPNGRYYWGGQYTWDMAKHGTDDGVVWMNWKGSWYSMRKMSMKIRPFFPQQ
T1 sequence (P02671 20-629 partner limits assumed): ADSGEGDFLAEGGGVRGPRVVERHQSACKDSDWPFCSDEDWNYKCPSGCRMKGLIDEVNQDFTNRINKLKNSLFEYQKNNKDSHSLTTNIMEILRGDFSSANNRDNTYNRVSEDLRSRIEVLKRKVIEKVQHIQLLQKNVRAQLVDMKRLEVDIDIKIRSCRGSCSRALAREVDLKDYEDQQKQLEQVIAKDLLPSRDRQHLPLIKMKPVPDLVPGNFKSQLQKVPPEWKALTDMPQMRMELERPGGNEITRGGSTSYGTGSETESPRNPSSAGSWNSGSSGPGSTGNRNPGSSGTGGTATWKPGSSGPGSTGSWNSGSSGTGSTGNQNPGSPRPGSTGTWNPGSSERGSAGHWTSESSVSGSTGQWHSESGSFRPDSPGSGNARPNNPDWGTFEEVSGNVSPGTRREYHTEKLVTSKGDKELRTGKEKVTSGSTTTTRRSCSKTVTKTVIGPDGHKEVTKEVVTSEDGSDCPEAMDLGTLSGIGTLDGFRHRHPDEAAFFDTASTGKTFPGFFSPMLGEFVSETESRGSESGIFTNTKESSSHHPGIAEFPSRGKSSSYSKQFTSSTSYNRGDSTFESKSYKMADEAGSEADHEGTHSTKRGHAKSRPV

[2] = target: T2, fibrinogen in human plasma (Homo sapiens, UniProt P02675+P02679); assay: Polymerisation of fibrinogen in human plasma (KC4 Delta coagulation analyzer); assay type: biochemical; settings: 30 μL dendrimer 0.25 mg/ml added to 100 μL human plasma, 37° C
T2 construct: from tissue; host or cells: human plasma
T2 sequence (P02679 27-453): T1 sequence (P02679 27-453)
T2 sequence (P02675 31-491): T1 sequence (P02675 31-491)
T2 sequence (P02671 20-629 partner limits assumed): T1 sequence (P02671 20-629 partner limits assumed)
Description: The ability of several different peptide dendrimers (Nos. 4, 5, 8, 9, 10, 11, 12, 13) to polymerise fibrinogen in human plasma was tested.
30 μL of each dendrimer (at a concentration of 0.25 mg/ml) was added to 100 μL human plasma at 37° C., and polymerisation of fibrinogen was determined using a Sigma Amelung KC4 Delta coagulation analyzer.

fibrinogen [3] = target: T1, fibrinogen; assay: Clotting activity of dendrimer extracted from gamma-irradiated gelatin paste; assay type: biochemical; settings: paste with SURGIFLO, extract about 0.25 mg/ml, fibrinogen 3 mg/ml, 37° C
Description: 2 ml of solution of Peptide Dendrimer No. 12 or 13 was mixed with SURGIFLO Haemostatic Matrix (a hydrated flowable gelatin matrix) to form a paste of each peptide. Each paste was sterilised by irradiation with ^60Co gamma rays at a dose of 30 kGy, and then stored at room temperature. Samples of the sterilised pastes were used for testing after storage for two and four weeks.
After storage, peptide dendrimers were extracted from each paste using 10 mM HEPES buffer. 30 μL of each extract (with a peptide concentration of about 0.25 mg/ml) was added to 100 μL of human fibrinogen at 3 mg/ml, and the ability of each dendrimer to polymerise fibrinogen (the ‘clotting’ activity) at 37° C. was determined using a Sigma Amelung KC4 Delta coagulation analyser. The polymerisation activity of non-irradiated control samples was also determined.

[4] = target: T3, purified human fibrinogen (Homo sapiens, UniProt P02675+P02679); assay: Co-polymerisation with purified human fibrinogen, clotting time (Sigma Amelung KC4 Delta coagulation analyser); assay type: biochemical
T3 sequence (P02679 27-453): T1 sequence (P02679 27-453)
T3 sequence (P02675 31-491): T1 sequence (P02675 31-491)
T3 sequence (P02671 20-629 partner limits assumed): T1 sequence (P02671 20-629 partner limits assumed)
Description: The ability of Peptide Dendrimer No. 12 to polymerise fibrinogen was assessed. 30 μl of dendrimer in solution, at concentration ranging from 0.005-2 mg/ml, was added to 100 μl purified human fibrinogen at 3 mg/ml (the level of fibrinogen found in the blood). Polymerisation of fibrinogen was analysed using a Sigma Amelung KC4 Delta coagulation analyser.
The ability of Peptide Dendrimer Nos. 4, 5, 10, 11, and 12 to copolymerise with fibrinogen was assessed using the same method described in Example 11. The concentration of each dendrimer was varied from 0.005-0.5 mg/ml.
The ability of the dendrimers to copolymerise with fibrinogen was assessed using the same method described in Example 11, for a concentration of each dendrimer ranging from 0.005-0.5mg/ml.
The ability of the dendrimers to copolymerise with fibrinogen was assessed using the same method described in Example 11, for a concentration of each dendrimer ranging from 0.005-0.5 mg/ml.
Peptide Conjugate No. 1 or 2 (2 mg/ml) was mixed with Peptide Dendrimer No. 3 or 4, and fibrinogen, and the ability of the mixtures to copolymerise with fibrinogen was assessed using the same method described in Example 11, for a concentration of each dendrimer ranging from 0.025-0.5 mg/ml.

## GPRPFPA
Fibrinogen [1]
  binding preference for hole 'a' / hole 'b' of fibrinogen: binds with high preference for hole ‘a’ in fibrinogen

## GPRPG
Fibrinogen [1]
  binding preference for hole 'a' / hole 'b' of fibrinogen: binds to hole ‘a’ and hole ‘b’ of fibrinogen, but with some preference for hole ‘a’

## GHRPY
Fibrinogen [1]
  binding preference for hole 'a' / hole 'b' of fibrinogen: binds strongly and preferentially to the ‘b’ hole of fibrinogen

## GPRP
Fibrinogen [1]
  binding preference for hole 'a' / hole 'b' of fibrinogen: binds strongly and preferentially to the ‘a’ hole of fibrinogen

## Peptide Dendrimer No. 12 (peptide GPRPG; chain KKKKK)
[2]
  ability to polymerise fibrinogen in human plasma: able to polymerise fibrinogen in human plasma
  clotting time: less than one second
Fibrinogen [3]; 30 kGy gamma, 2 weeks room temperature
  Clotting activity (seconds), Storage for 2 weeks post irradiation: 1 s
Fibrinogen [3]; 30 kGy gamma, 4 weeks room temperature
  Clotting activity (seconds), Storage for 4 weeks post irradiation: 1 s
Fibrinogen [3]; not irradiated
  Clotting activity (seconds), Non-irradiated control: 1 s
[4]; dendrimer 0.005-2 mg/ml, fibrinogen 3 mg/ml
  ability to copolymerise with fibrinogen: able to copolymerise with fibrinogen almost instantaneously
[4]; dendrimer in the range ~0.02-0.5 mg/ml
  clotting: almost instantaneous clotting
